Laboratory results published in paper PMC3234246.

Legend:
[1] = target: Nup358/RanBP2 cyclophilin domain (Nup358Cyp), human (human); assay: ITC; recombinant CypA or Nup358Cyp against recombinant CA^NTD, without cyclosporine; done as described in ref. 25
[2] = target: cyclophilin A (CypA), human (UniProt P62937); assay: ITC
[3] = target: cyclophilin A (CypA), human (UniProt P62937); assay: ITC; recombinant CypA or Nup358Cyp against recombinant CA^NTD, without cyclosporine; done as described in ref. 25

Sequence of cyclophilin A (CypA), human (P62937 whole entry): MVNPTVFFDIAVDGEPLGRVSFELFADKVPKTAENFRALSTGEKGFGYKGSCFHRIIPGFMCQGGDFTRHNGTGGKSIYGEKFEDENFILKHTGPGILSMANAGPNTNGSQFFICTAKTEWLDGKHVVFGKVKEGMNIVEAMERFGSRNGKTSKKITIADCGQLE

| Substance | Kd [1] [µM] | Kd [2] [µM] | other: stoichiometry N [2] | other: ΔH [2] [kcal/mol] | other: ΔS ((cal/mol)/deg) [2] | Kd [3] [µM] |
| --- | --- | --- | --- | --- | --- | --- |
| HIV-1 capsid N-terminal domain (CA^NTD) mutant N74D (domain or fragment) | 95 | – | – | – | – | – |
| HIV-1 NL4.3 capsid N-terminal domain (CA^NTD), wild type P90A | – | 46 | 0.8 | -2.84 | 9.8 | – |
| HIV-1 NL4.3 capsid N-terminal domain (CA^NTD), wild type N74D | – | – | 0.8 | -9.8 | -10.3 | – |
| HIV-1 NL4.3 capsid N-terminal domain (CA^NTD), wild type (domain or fragment) | 16 | – | – | – | – | 7 |
| HIV-1 capsid N-terminal domain (CA^NTD) mutant N57A (domain or fragment) | 55 | – | – | – | – | 7 |
